± gives the uncertainty stated by the source.

Our source for the abundance fitness values is the Human Domainome abundance scans (Beltran et al. 2025).

This series is described as follows: abundance fitness (aPCA) (normalised: wild type 0, dead -1); higher = more abundant; growth selection in yeast, the domain comes from the species named. To be noted: Homo sapiens.
Consider “Scaffold attachment factor B1 E66L, Q15424”, for which the abundance fitness is -0.133 ± 0.051.
With “Scaffold attachment factor B1 E66M, Q15424” the figure was -0.137 ± 0.046; with “Scaffold attachment factor B1 E66N, Q15424”, -0.202 ± 0.075; with “Scaffold attachment factor B1 E66P, Q15424”, -0.909 ± 0.097.
Next, “Scaffold attachment factor B1 E66Q, Q15424”: -0.014 ± 0.078; “Scaffold attachment factor B1 E66R, Q15424”: -0.202 ± 0.047.
Next, “Scaffold attachment factor B1 E66S, Q15424”: -0.164 ± 0.056.
Take “Scaffold attachment factor B1 E66T, Q15424”: the abundance fitness was -0.11 ± 0.076.
Next, “Scaffold attachment factor B1 E66V, Q15424”: -0.244 ± 0.05; “Scaffold attachment factor B1 E66W, Q15424”: -0.43 ± 0.059.
Next, “Scaffold attachment factor B1 E66Y, Q15424”: -0.288 ± 0.075; “Scaffold attachment factor B1 E68A, Q15424”: -0.233 ± 0.05.
In the case of “Scaffold attachment factor B1 E68C, Q15424”, the abundance fitness is -0.586 ± 0.056.
Next, “Scaffold attachment factor B1 E68D, Q15424”: -0.224 ± 0.073; “Scaffold attachment factor B1 E68G, Q15424”: -0.289 ± 0.045.
“Scaffold attachment factor B1 E68H, Q15424” came in with an abundance fitness of -0.359 ± 0.057.
With “Scaffold attachment factor B1 E68I, Q15424”, the abundance fitness is -0.469 ± 0.05.
With “Scaffold attachment factor B1 E68K, Q15424” the figure was -0.352 ± 0.07; with “Scaffold attachment factor B1 E68M, Q15424”, -0.461 ± 0.054; with “Scaffold attachment factor B1 E68N, Q15424”, -0.346 ± 0.056.
Next, “Scaffold attachment factor B1 E68P, Q15424”: -0.802 ± 0.051; “Scaffold attachment factor B1 E68Q, Q15424”: -0.279 ± 0.049; “Scaffold attachment factor B1 E68R, Q15424”: -0.341 ± 0.051.
In the case of “Scaffold attachment factor B1 E68S, Q15424”, the abundance fitness was -0.236 ± 0.052.
With “Scaffold attachment factor B1 E68T, Q15424” the figure was -0.314 ± 0.054.
Next, “Scaffold attachment factor B1 E68V, Q15424”: -0.265 ± 0.053; “Scaffold attachment factor B1 E68W, Q15424”: -0.836 ± 0.07; “Scaffold attachment factor B1 E74A, Q15424”: -0.071 ± 0.067.
Next, “Scaffold attachment factor B1 E74C, Q15424”: -0.18 ± 0.073; “Scaffold attachment factor B1 E74D, Q15424”: -0.312 ± 0.074.
On to “Scaffold attachment factor B1 E74F, Q15424”, for which the abundance fitness is -0.175 ± 0.069.
Next, “Scaffold attachment factor B1 E74G, Q15424”: -0.202 ± 0.063; “Scaffold attachment factor B1 E74H, Q15424”: -0.608 ± 0.12.
Next, “Scaffold attachment factor B1 E74I, Q15424”: -0.215 ± 0.086; “Scaffold attachment factor B1 E74K, Q15424”: -0.213 ± 0.089; “Scaffold attachment factor B1 E74L, Q15424”: -0.125 ± 0.053.
Take “Scaffold attachment factor B1 E74M, Q15424”: the abundance fitness was -0.119 ± 0.068.
Next, “Scaffold attachment factor B1 E74N, Q15424”: -0.366 ± 0.09.
With “Scaffold attachment factor B1 E74P, Q15424” the figure was -0.309 ± 0.063; with “Scaffold attachment factor B1 E74Q, Q15424”, -0.32 ± 0.088; with “Scaffold attachment factor B1 E74R, Q15424”, -0.074 ± 0.051.
Next, “Scaffold attachment factor B1 E74S, Q15424”: -0.053 ± 0.053; “Scaffold attachment factor B1 E74T, Q15424”: -0.183 ± 0.083; “Scaffold attachment factor B1 E74V, Q15424”: -0.157 ± 0.055.
“Scaffold attachment factor B1 E74W, Q15424” displayed an abundance fitness of -0.135 ± 0.055.
Next, “Scaffold attachment factor B1 E74Y, Q15424”: -0.226 ± 0.09; “Scaffold attachment factor B1 E76A, Q15424”: -0.161 ± 0.064; “Scaffold attachment factor B1 E76C, Q15424”: -0.113 ± 0.054.
Next, “Scaffold attachment factor B1 E76G, Q15424”: -0.096 ± 0.053; “Scaffold attachment factor B1 E76I, Q15424”: -0.291 ± 0.093.
With “Scaffold attachment factor B1 E76K, Q15424” the figure was -0.294 ± 0.096; with “Scaffold attachment factor B1 E76L, Q15424”, -0.199 ± 0.062; with “Scaffold attachment factor B1 E76M, Q15424”, -0.2 ± 0.086.
“Scaffold attachment factor B1 E76N, Q15424” displayed an abundance fitness of -0.169 ± 0.067.
Next, “Scaffold attachment factor B1 E76P, Q15424”: -0.069 ± 0.083; “Scaffold attachment factor B1 E76Q, Q15424”: -0.415 ± 0.088; “Scaffold attachment factor B1 E76R, Q15424”: -0.055 ± 0.054.
Next, “Scaffold attachment factor B1 E76T, Q15424”: -0.195 ± 0.073; “Scaffold attachment factor B1 E76V, Q15424”: -0.044 ± 0.049; “Scaffold attachment factor B1 E76W, Q15424”: -0.305 ± 0.07.
With “Scaffold attachment factor B1 E76Y, Q15424” the figure was -0.175 ± 0.056; with “Scaffold attachment factor B1 E80A, Q15424”, -0.055 ± 0.051.
Substance “Scaffold attachment factor B1 E80D, Q15424” showed an abundance fitness of -0.323 ± 0.14.
With “Scaffold attachment factor B1 E80G, Q15424” the figure was -0.151 ± 0.085; with “Scaffold attachment factor B1 E80K, Q15424”, -0.889 ± 0.25.
With “Scaffold attachment factor B1 E80M, Q15424” the figure was -0.361 ± 0.19; with “Scaffold attachment factor B1 E80N, Q15424”, -0.513 ± 0.43.
With “Scaffold attachment factor B1 E80Q, Q15424” the figure was -0.274 ± 0.1.
Take “Scaffold attachment factor B1 E80R, Q15424”: the abundance fitness was -0.443 ± 0.092.
Next, “Scaffold attachment factor B1 E80T, Q15424”: -0.675 ± 0.2; “Scaffold attachment factor B1 E80V, Q15424”: -0.223 ± 0.059.
With “Scaffold attachment factor B1 E80W, Q15424” the figure was -0.409 ± 0.15; with “Scaffold attachment factor B1 G27A, Q15424”, -0.257 ± 0.061; with “Scaffold attachment factor B1 G27D, Q15424”, -0.027 ± 0.08.
With “Scaffold attachment factor B1 G27E, Q15424” the figure was -0.068 ± 0.062.
“Scaffold attachment factor B1 G27F, Q15424” registered an abundance fitness of -0.246 ± 0.12.
Next, “Scaffold attachment factor B1 G27H, Q15424”: -0.692 ± 0.14; “Scaffold attachment factor B1 G27I, Q15424”: -0.03 ± 0.079.
On to “Scaffold attachment factor B1 G27K, Q15424”, for which the abundance fitness was -0.204 ± 0.1.
With “Scaffold attachment factor B1 G27L, Q15424” the figure was -0.191 ± 0.057; with “Scaffold attachment factor B1 G27M, Q15424”, -0.09 ± 0.11.
With “Scaffold attachment factor B1 G27N, Q15424” the figure was -0.187 ± 0.12.
Next, “Scaffold attachment factor B1 G27P, Q15424”: -0.519 ± 0.11; “Scaffold attachment factor B1 G27Q, Q15424”: -0.334 ± 0.08; “Scaffold attachment factor B1 G27R, Q15424”: -0.327 ± 0.052.
In the case of “Scaffold attachment factor B1 G27S, Q15424”, the abundance fitness was -0.092 ± 0.07.
With “Scaffold attachment factor B1 G27V, Q15424” the figure was -0.1 ± 0.048.
With “Scaffold attachment factor B1 G27W, Q15424” the figure was -0.559 ± 0.057.
With “Scaffold attachment factor B1 G27Y, Q15424” the figure was -0.088 ± 0.12; with “Scaffold attachment factor B1 G52A, Q15424”, -0.538 ± 0.069; with “Scaffold attachment factor B1 G52C, Q15424”, -0.931 ± 0.082.
Substance “Scaffold attachment factor B1 G52D, Q15424” had an abundance fitness of -0.691 ± 0.084.
With “Scaffold attachment factor B1 G52E, Q15424”, the abundance fitness is -0.727 ± 0.079.
Next, “Scaffold attachment factor B1 G52F, Q15424”: -1.25 ± 0.11.
With “Scaffold attachment factor B1 G52H, Q15424” the figure was -1.02 ± 0.15; with “Scaffold attachment factor B1 G52I, Q15424”, -1.72 ± 0.32.
